PMC2064109 (The Journal of Cell Biology, 2007)

Molecular target: T1, His-tagged bacterially expressed MBP-POSH fusion protein (human, UniProt Q7Z6J0 1-888)
T1 sequence (looked up): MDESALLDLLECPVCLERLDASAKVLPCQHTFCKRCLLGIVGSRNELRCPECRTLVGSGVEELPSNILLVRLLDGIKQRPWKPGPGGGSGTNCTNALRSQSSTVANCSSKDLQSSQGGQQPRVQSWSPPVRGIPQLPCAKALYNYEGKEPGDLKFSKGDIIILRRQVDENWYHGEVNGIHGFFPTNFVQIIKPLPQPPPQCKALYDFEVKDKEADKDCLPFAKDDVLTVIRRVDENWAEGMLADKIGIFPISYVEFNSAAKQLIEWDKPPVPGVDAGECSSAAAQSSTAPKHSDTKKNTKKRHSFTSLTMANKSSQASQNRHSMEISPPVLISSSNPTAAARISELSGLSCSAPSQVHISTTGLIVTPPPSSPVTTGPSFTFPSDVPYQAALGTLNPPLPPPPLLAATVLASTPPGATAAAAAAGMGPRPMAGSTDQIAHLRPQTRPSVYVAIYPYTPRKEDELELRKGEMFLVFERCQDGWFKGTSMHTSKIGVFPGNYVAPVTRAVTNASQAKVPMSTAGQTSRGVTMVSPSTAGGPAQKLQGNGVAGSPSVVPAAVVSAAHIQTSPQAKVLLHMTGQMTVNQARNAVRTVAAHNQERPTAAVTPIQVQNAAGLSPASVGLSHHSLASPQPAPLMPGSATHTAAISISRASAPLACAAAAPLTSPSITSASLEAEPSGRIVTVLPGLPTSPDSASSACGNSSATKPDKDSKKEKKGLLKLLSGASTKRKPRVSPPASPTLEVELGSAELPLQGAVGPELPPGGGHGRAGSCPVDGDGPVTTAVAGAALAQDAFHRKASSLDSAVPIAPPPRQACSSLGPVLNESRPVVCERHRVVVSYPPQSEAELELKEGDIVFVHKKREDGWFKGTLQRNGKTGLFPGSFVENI
Assay: co-IP

B1: truncated Herp (tHerp; amino acids 1-272) with FLAG tag (domain or fragment, UniProt Q15011 1-272, looked up)
chain: MESETEPEPVTLLVKSPNQRHRDLELSGDRGWSVGHLKAHLSRVYPERPRPEDQRLIYSGKLLLDHQCLRDLLPKQEKRHVLHLVCNVKSPSKMPEINAKVAESTEEPAGSNRGQYPEDSSSDGLRQREVLRNLSSPGWENISRPEAAQQAFQGLGPGFSGYTPYGWLQLSWFQQIYARQYYMQYLAATAASGAFVPPPSAQEIPVVSAPAPAPIHNQFPAENQPANQNAAPQVVVNPGANQNLRMNAQGGPIVEEDDEINRDWLDWTYSAA
B1: binds.
